Positions count from the first letter of the chain named. Names may count otherwise.
B1: Y150-F8-1 (bispecific antibody, human IgG1, kappa)
scFv: EVQLVESGGGLVQPKGSLKLSCAASGFTFNTYAMNWVRQAPGKGLEWVARIRSKYNNYATYYADSVKDRFTISRDDSQSILYLQMNNLKTEDTAMYYCVRHGNFGNSYVSWFAYWGQGTLVTVSSGGGGSGGGGSGGGGSQAVVTQESALTTSPGETVTLTCRSSTGAVTTSNYANWVQEKPDHLFTGLIGGTNKRAPGVPARFSGSLIGDKAALTITGAQTEDEAIYFCALWYSNLWVFGGGTKLTVLGDGDGSDKTHTCPPCPAPEFEGGPSVFLFPPKPKDTLMISRTPEVTCVVVDVSHEDPEVKFNWYVDGVEVHNAKTKPREEQYNSTYRVVSVLTVLHQDWLNGKEYKCKVSNKALPASIEKTISKAKGQPREPQVCTLPPSRDELTKNQVSLSCAVKGFYPSDIAVEWESNGQPENNYKTTPPVLDSDGSFFLVSKLTVDKSRWQQGNVFSCSVMHEALHNHYTQKSLSLSPGK
heavy: EVQLLESGGGLVQPGGSLRLSCAVSGFTFNSFAMSWVRQAPGKGLEWVSAISGSGGGTYYADSVKGRFTISRDNSKNTLYLQMNSLRAEDTAVYFCAKDKILWFGEPVFDYWGQGTLVTVSSASTKGPSVFPLAPSSKSTSGGTAALGCLVKDYFPEPVTVSWNSGALTSGVHTFPAVLQSSGLYSLSSVVTVPSSSLGTQTYICNVNHKPSNTKVDKKVEPKSCDKTHTCPPCPAPEFEGGPSVFLFPPKPKDTLMISRTPEVTCVVVDVSHEDPEVKFNWYVDGVEVHNAKTKPREEQYNSTYRVVSVLTVLHQDWLNGKEYKCKVSNKALPASIEKTISKAKGQPREPQVYTLPPCRDELTKNQVSLWCLVKGFYPSDIAVEWESNGQPENNYKTTPPVLDSDGSFFLYSKLTVDKSRWQQGNVFSCSVMHEALHNHYTQKSLSLSPGK
light: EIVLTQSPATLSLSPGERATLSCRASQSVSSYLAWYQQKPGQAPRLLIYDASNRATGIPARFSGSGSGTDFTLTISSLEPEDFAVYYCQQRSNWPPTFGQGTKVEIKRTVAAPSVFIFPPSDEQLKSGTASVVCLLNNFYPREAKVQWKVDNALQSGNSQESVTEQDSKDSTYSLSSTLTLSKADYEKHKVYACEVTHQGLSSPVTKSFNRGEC
notes: Comparative: anti-CD38 (Dara) Fab arm and anti-CD3 scFv (SP34)-Fc fusion peptide, CH2 FES
B2: Y150-F8-2 (bispecific antibody, human IgG1, kappa, N297Q)
scFv: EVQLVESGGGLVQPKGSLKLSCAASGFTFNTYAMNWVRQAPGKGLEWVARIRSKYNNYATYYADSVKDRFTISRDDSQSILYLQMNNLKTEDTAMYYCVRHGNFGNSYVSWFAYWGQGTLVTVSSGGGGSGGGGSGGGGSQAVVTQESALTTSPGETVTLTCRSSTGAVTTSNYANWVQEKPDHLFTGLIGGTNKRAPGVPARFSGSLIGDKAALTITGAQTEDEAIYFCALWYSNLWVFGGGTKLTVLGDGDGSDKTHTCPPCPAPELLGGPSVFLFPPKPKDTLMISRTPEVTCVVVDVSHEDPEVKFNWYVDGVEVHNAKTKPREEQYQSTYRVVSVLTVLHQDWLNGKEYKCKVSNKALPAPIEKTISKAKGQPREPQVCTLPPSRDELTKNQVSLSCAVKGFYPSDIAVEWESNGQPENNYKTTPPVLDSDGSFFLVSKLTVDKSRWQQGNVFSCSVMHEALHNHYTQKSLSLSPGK
heavy: B1 heavy with F239L, E240L, N302Q, S336P
light: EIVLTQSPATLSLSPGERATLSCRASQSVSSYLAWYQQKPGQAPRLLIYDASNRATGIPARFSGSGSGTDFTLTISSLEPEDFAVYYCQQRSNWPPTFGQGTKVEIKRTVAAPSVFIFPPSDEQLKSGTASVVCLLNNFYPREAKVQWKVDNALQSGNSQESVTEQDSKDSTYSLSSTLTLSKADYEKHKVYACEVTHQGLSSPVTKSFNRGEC
notes: Comparative: anti-CD38 (Dara) Fab arm and anti-CD3 scFv (SP34)-Fc fusion peptide, CH2 N297Q
B3: Y150-F9-7 (bispecific antibody, human IgG1, lambda)
scFv: QVQLVESGGGVVQPGRSLRLSCAASGFTFSTYAMNWVRQAPGKGLEWVARIRSKYNNYATYYADSVKDRFTISRDDSKNTLYLQMNSLRAEDTAVYYCARHGNFGNSYVSWFAYWGQGTLVTVSSGGGGSGGGGSGGGGSQTVVTQEPSLTVSPGGTVTLTCRSSTGAVTTSNYANWVQQKPGQAPRGLIGGTNKRAPGVPARFSGSLLGGKAALTLSGVQPEDEAEYYCALWYSNLWVFGGGTKVEIKGGGGSDKTHTCPPCPAPEFEGGPSVFLFPPKPKDTLMISRTPEVTCVVVDVSHEDPEVKFNWYVDGVEVHNAKTKPREEQYNSTYRVVSVLTVLHQDWLNGKEYKCKVSNKALPASIEKTISKAKGQPREPQVCTLPPSRDELTKNQVSLSCAVKGFYPSDIAVEWESNGQPENNYKTTPPVLDSDGSFFLVSKLTVDKSRWQQGNVFSCSVMHEALHNHYTQKSLSLSPGK
heavy: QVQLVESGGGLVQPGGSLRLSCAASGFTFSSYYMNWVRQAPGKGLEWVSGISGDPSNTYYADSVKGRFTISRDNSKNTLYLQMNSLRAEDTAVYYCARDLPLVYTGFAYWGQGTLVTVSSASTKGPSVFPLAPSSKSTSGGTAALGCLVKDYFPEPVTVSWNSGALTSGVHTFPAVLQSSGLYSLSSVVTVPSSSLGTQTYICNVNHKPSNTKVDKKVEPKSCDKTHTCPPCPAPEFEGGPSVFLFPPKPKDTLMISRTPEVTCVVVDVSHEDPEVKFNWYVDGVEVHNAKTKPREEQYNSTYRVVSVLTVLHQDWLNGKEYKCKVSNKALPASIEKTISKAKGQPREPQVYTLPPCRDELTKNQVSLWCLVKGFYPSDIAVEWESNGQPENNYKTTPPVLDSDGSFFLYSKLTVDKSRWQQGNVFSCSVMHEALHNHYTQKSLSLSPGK
light: DIELTQPPSVSVAPGQTARISCSGDNLRHYYVYWYQQKPGQAPVLVIYGDSKRPSGIPERFSGSNSGNTATLTISGTQAEDEADYYCQTYTGGASLVFGGGTKLTVLGQPKAAPSVTLFPPSSEELQANKATLVCLISDFYPGAVTVAWKADSSPVKAGVETTTPSKQSNNKYAASSYLSLTPEQWKSHRSYSCQVTHEGSTVEKTVAPTECS
B4: IC-6 (bispecific antibody, human IgG1, kappa)
scFv: B3 scFv with Q1E, V11L, R16G, L120M, T142A, R163G, V220A, V246L
heavy: EVKLDETGGGLVQPGRPMKLSCVASGFTFSDYWMNWVRQSPEKGLEWVAQIRNKPYNYETYYSDSVKGRFTISRDDSKSSVYLQMNNLRVEDMGIYYCTGSYYGMDYWGQGTSVTVSSASTKGPSVFPLAPSSKSTSGGTAALGCLVKDYFPEPVTVSWNSGALTSGVHTFPAVLQSSGLYSLSSVVTVPSSSLGTQTYICNVNHKPSNTKVDKKVEPKSCDKTHTCPPCPAPEFEGGPSVFLFPPKPKDTLMISRTPEVTCVVVDVSHEDPEVKFNWYVDGVEVHNAKTKPREEQYNSTYRVVSVLTVLHQDWLNGKEYKCKVSNKALPASIEKTISKAKGQPREPQVYTLPPCRDELTKNQVSLWCLVKGFYPSDIAVEWESNGQPENNYKTTPPVLDSDGSFFLYSKLTVDKSRWQQGNVFSCSVMHEALHNHYTQKSLSLSPGK
light: DVVMTQTPLSLPVSLGDQASISCRSSQSLVHSNGNTYLRWYLQKPGQSPKVLIYKVSNRFSGVPDRFSGSGSGTDFTLKISRVEAEDLGVYFCSQSTHVPWTFGGGTKLEIKRTVAAPSVFIFPPSDEQLKSGTASVVCLLNNFYPREAKVQWKVDNALQSGNSQESVTEQDSKDSTYSLSSTLTLSKADYEKHKVYACEVTHQGLSSPVTKSFNRGEC
notes: Comparative: 4420 Fab arm and anti-CD3 scFv (CD3 antibody 1 VH, CD3 antibody 2 VL)-Fc fusion peptide
B5: IC-4 (bispecific antibody, human IgG1, kappa)
scFv: B3 scFv with Q1E, V11L, R16G, L120M, T142A, V200T, V246L, E247T, I248V, K249L
heavy: B4 heavy
light: B4 light
notes: Comparative: 4420 Fab arm and anti-CD3 scFv (CD3 antibody 1 VH/VL)-Fc fusion peptide
B6: IC-5 (bispecific antibody, human IgG1, kappa)
scFv: B3 scFv with Q1E, V11L, R16G, S30N, A49G, D68G, T142A, R163G, V220A, V246L
heavy: B4 heavy
light: B4 light
notes: Comparative: 4420 Fab arm and anti-CD3 scFv (CD3 antibody 2 VH/VL)-Fc fusion peptide
B7: MS-hCD3-IC16 (bispecific antibody, human IgG1, kappa)
scFv: B3 scFv
heavy: B4 heavy
light: B4 light
notes: 4420 Fab arm and anti-CD3 scFv (VH2a/VL5)-Fc fusion peptide, CH2 FES
B8: MS-hCD3-IC17 (bispecific antibody, human IgG1, kappa)
scFv: QVQLVESGGGVVQPGRSLRLSCAASGFTFSTYAMNWVRQAPGKGLEWVARIRSKYNNYATYYADSVKDRFTISRDDSKNTLYLQMNSLRAEDTAVYYCARHGNFGNSYVSWFAYWGQGTLVTVSSGGGGSGGGGSGGGGSQTVVTQEPSLTVSPGGTVTLTCRSSTGAVTTSNYANWVQQKPGQAPRGLIGGTNKRAPGVPARFSGSLLGGKAALTLSGVQPEDEAEYYCALWYSNLWVFGGGTKVEIKGGGGSDKTHTCPPSPAPPVAGPSVFLFPPKPKDTLMISRTPEVTCVVVDVSHEDPEVQFNWYVDGVEVHNAKTKPREEQFNSTFRVVSVLTVVHQDWLNGKEYKCKVSNKGLPAPIEKTISKTKGQPREPQVCTLPPSRDELTKNQVSLSCAVKGFYPSDIAVEWESNGQPENNYKTTPPVLDSDGSFFLVSKLTVDKSRWQQGNVFSCSVMHEALHNHYTQKSLSLSPGK
heavy: EVKLDETGGGLVQPGRPMKLSCVASGFTFSDYWMNWVRQSPEKGLEWVAQIRNKPYNYETYYSDSVKGRFTISRDDSKSSVYLQMNNLRVEDMGIYYCTGSYYGMDYWGQGTSVTVSSASTKGPSVFPLAPSSKSTSGGTAALGCLVKDYFPEPVTVSWNSGALTSGVHTFPAVLQSSGLYSLSSVVTVPSSSLGTQTYICNVNHKPSNTKVDKKVEPKSCDKTHTCPPSPAPPVAGPSVFLFPPKPKDTLMISRTPEVTCVVVDVSHEDPEVQFNWYVDGVEVHNAKTKPREEQFNSTFRVVSVLTVVHQDWLNGKEYKCKVSNKGLPAPIEKTISKTKGQPREPQVYTLPPCRDELTKNQVSLWCLVKGFYPSDIAVEWESNGQPENNYKTTPPVLDSDGSFFLYSKLTVDKSRWQQGNVFSCSVMHEALHNHYTQKSLSLSPGK
light: B4 light
notes: 4420 Fab arm and anti-CD3 scFv (VH2a/VL5)-Fc fusion peptide, CH2 SG2; also called MS-hCD3-17
B9: IC-2 (bispecific antibody, human IgG1, kappa)
scFv: B1 scFv
heavy: B4 heavy
light: B4 light
notes: Comparative: 4420 Fab arm and anti-CD3 scFv (SP34)-Fc fusion peptide, CH2 FES
B10: IC-3 (bispecific antibody, human IgG1, kappa, N297Q)
scFv: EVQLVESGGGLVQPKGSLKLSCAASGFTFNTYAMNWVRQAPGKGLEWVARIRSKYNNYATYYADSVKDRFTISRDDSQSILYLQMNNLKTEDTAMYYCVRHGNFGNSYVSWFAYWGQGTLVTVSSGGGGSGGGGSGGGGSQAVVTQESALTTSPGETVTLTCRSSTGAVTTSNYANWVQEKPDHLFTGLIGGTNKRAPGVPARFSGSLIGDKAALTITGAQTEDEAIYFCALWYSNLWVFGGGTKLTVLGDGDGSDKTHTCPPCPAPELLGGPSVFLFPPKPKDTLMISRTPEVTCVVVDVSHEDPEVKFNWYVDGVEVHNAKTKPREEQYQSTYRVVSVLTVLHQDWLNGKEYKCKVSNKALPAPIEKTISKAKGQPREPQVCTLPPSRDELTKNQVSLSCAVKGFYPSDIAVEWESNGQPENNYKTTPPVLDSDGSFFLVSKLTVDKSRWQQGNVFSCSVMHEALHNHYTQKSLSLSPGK
heavy: B4 heavy with F235L, E236L, N298Q, S332P
light: B4 light
notes: Comparative: 4420 Fab arm and anti-CD3 scFv (SP34)-Fc fusion peptide, CH2 N297Q
B11: MS-hCD3-IC18 (bispecific antibody, human IgG1, kappa)
scFv: B8 scFv with F112A, V178F
heavy: B8 heavy
light: B4 light
notes: 4420 Fab arm and anti-CD3 scFv (VH2j/VL5a)-Fc fusion peptide, CH2 SG2

Experiments:
monkey CD3 = biological target: T1, monkey CD3 (monkey); assay: flow cytometry on monkey CD3 positive T cells
T1 construct: whole, on cells; also called CD3 on monkey CD3 positive T cells

human CD3 = biological target: T2, human CD3 (human, UniProt P07766 23-207); assay: flow cytometry on human CD3 positive T cells
T2 construct: whole, on cells; Assays used CD3 positive T cells (or CIK cells) from human blood; also called Human CD3ϵ; CD3 on human CD3 positive T cells

Human CD38 = biological target: T3, Human CD38 (human, UniProt P28907 1-300); assay: flow cytometry on CD38 positive tumor cells (MM.1S or RPMI 8226)
T3 construct: whole, on cells; the assays used the protein on tumor cells

Binder | EC50 (monkey CD3) | EC50 (human CD3) | EC50 (Human CD38)
B1 | 152 nM | – | –
B2 | 102 nM | – | –
B3 | 422 nM | 426 nM | 103 nM
B4 | 154 nM | 118 nM | –
B5 | 296 nM | 197 nM | –
B6 | 161 nM | 122 nM | –
B7 | 295 nM | 170 nM | –
B8 | 222 nM | 122 nM | –
B9 | 312 nM | 172 nM | –
B10 | 285 nM | 155 nM | –
B11 | 680 nM | 582 nM | –

Source: patent US20220041721A1 (WUHAN YZY BIOPHARMA, published 2022)
